According to paper PMC9209526 (Nature Communications, 2022):

Legend:
[1] = target: T1, N4posAbl (Abl kinase domain with N-terminal KRKKSGG tag) (Homo sapiens, UniProt P00519); assay: ClyA-AS nanopore tweezers single-channel current recording: ligand binding to N4posAbl
T1 sequence (P00519 229-512): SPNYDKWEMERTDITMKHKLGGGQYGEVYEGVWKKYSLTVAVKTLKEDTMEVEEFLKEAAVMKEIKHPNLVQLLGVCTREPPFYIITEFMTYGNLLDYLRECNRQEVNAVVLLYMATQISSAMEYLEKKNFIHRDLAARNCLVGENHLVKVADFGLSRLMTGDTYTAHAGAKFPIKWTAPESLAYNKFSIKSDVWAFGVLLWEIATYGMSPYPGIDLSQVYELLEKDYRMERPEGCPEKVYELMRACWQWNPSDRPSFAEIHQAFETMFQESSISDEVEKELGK

Abl kinase = details: read-out: reported KD of ATP; cited from earlier work
[2] = target: T2, N4posG321V (Abl kinase domain hinge mutant) (Homo sapiens, UniProt P00519, G321V); assay: ClyA-AS nanopore tweezers single-channel current recording: ligand binding to N4posG321V
T2 construct: His10-TEV (N, cleaved yes); made in house; host or cells: E. coli BL21(DE3)pLysS, co-expressed with YopH phosphatase
T2 sequence (P00519 229-512 G321V): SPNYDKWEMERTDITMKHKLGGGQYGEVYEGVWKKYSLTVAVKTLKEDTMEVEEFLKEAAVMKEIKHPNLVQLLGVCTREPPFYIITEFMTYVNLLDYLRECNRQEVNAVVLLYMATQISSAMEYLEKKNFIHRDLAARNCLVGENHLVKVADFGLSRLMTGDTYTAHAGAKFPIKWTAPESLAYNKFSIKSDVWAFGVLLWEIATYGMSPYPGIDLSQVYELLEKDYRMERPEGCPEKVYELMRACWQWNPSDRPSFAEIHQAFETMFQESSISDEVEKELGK

[3] = target: T3, N4posAbl: wildtype Abl kinase domain (residues 229-512) with a positively charged peptide tail (N4pos tag, … (human, UniProt P00519 229-512)); assay: ClyA nanopore tweezers (single-channel current recording); single Abl kinase molecule trapped in a ClyA-AS nanopore in a DPhPC bilayer; Abltide titrated with 10 mM MgCl2; occupancy of the bound state against concentration fitted with a single site binding model; -80 mV, 150 mM NaCl, 100 mM Tris-HCl, pH 7.5, 22 °C, ~100 nM kinase in cis; details: both partners purified
T3 sequence (looked up): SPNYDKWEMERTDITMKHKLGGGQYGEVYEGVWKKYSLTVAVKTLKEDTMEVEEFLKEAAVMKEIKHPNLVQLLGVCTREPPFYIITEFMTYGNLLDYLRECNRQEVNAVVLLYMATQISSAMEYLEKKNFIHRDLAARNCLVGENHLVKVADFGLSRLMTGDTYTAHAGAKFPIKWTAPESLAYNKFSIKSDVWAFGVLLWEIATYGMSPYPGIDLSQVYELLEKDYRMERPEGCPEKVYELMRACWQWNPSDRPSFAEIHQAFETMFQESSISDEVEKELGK

[4] = target: T4, N4posG321V: Abl kinase domain (residues 229-512) hinge mutant G321V with the N4pos tag (KRKKSGG) at its … (human, UniProt P00519 229-512, G321V); assay: as above; details: both partners purified
T4 construct: also called Abl G321V
T4 sequence (looked up): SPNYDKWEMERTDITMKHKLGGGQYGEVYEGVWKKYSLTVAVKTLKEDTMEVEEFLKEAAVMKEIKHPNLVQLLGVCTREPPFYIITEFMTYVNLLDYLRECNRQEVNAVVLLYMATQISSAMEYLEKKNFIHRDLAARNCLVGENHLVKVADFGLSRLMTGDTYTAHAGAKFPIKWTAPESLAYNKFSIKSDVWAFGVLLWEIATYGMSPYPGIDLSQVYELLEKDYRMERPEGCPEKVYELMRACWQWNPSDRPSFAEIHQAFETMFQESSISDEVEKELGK

[5] = system: kinase substrate peptide Abltide; assay: Enzyme-coupled Abl kinase assay (NADH consumption), Michaelis-Menten kinetics; format: biochemical; details: for Vmax / kcat: Abltide 50~800 µM, […] ATP, 30 nM kinase, 30 °C; for catalytic activity: Michaelis-Menten kinetic analysis
Procedure: (§1) Absorbance at 340 nm was monitored with a microtiter plate spectrophotometer (BioTek Synergy 2) for 30 min. The background kinase activity was determined in the reaction mix without the substrate peptide and subtracted from the experiments with the substrate peptide. To obtain the enzyme kinetics, initial phosphorylation rates at different substrate peptide concentrations (50~800 µM) were measured. Plots of the initial rate as a function of peptide substrate concentration were fit by nonlinear regression to obtain the Michaelis-Menten kinetic parameters.

[6] = target: T5, kinase substrate peptide Abltide (Homo sapiens, UniProt P00519); assay: as above; format: biochemical
T5 sequence (P00519 229-512): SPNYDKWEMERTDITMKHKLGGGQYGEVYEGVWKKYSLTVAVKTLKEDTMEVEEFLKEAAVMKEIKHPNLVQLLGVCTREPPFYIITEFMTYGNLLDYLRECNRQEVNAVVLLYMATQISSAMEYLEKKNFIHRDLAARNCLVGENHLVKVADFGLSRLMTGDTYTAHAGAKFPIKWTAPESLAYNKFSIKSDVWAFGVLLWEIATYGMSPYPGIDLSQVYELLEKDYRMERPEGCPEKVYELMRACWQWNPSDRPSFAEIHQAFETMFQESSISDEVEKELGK
Procedure: as §1

[7] = Conformational state analysis of apo Abl kinases in ClyA-AS nanopore (S1/S2 and S1 sub-state dwell times, populations, rate constants, free energy); parameters: species or system human

[Cl-].[Cl-].[Mg+2] [MgCl2]
effect on N4posAbl current signal / conformational states [1]: did not trigger any noticeable change

ATP
Kd (Abl kinase): 69 ± 4 µM | effect on N4posG321V current trace [2]: did not trigger any change in the current trace

KKGEAIYAAPFA (Abl substrate peptide Abltide) [kinase substrate peptide Abltide]
Kd [3]: 69.9 ± 13 µM | Kd [4]: 257 ± 55.9 µM

B1: Abl: wildtype Abl kinase domain (residue 229-512) (protein)
chain: SPNYDKWEMERTDITMKHKLGGGQYGEVYEGVWKKYSLTVAVKTLKEDTMEVEEFLKEAAVMKEIKHPNLVQLLGVCTREPPFYIITEFMTYGNLLDYLRECNRQEVNAVVLLYMATQISSAMEYLEKKNFIHRDLAARNCLVGENHLVKVADFGLSRLMTGDTYTAHAGAKFPIKWTAPESLAYNKFSIKSDVWAFGVLLWEIATYGMSPYPGIDLSQVYELLEKDYRMERPEGCPEKVYELMRACWQWNPSDRPSFAEIHQAFETMFQESSISDEVEKELGK
Vmax [5]: 12.8 ± 1.3 µM/min | kcat [5]: 7.112 ± 0.717 s⁻¹ | kcat [6]: 7.1 ± 0.7 s⁻¹

B2: N4posAbl: Abl kinase domain with positively charged peptide tail KRKKSGG at its N-terminus (protein)
chain: SPNYDKWEMERTDITMKHKLGGGQYGEVYEGVWKKYSLTVAVKTLKEDTMEVEEFLKEAAVMKEIKHPNLVQLLGVCTREPPFYIITEFMTYGNLLDYLRECNRQEVNAVVLLYMATQISSAMEYLEKKNFIHRDLAARNCLVGENHLVKVADFGLSRLMTGDTYTAHAGAKFPIKWTAPESLAYNKFSIKSDVWAFGVLLWEIATYGMSPYPGIDLSQVYELLEKDYRMERPEGCPEKVYELMRACWQWNPSDRPSFAEIHQAFETMFQESSISDEVEKELGK
Vmax [5]: 13.3 ± 1.1 µM/min | kcat [5]: 7.395 ± 0.585 s⁻¹ | catalytic activity [5]: no influence on the catalytic activity | τS1 ([7]; N4posAbl, pore #1, single S1 dwell events): 443.75 ms | τS1 ([7]; N4posAbl, pore #3, single S1 dwell events): 1114.75 ms | τS2 ([7]; N4posAbl, pore #3, single S2 dwell events): 3255.5 ms

B3: N4posG321V: N4posAbl hinge mutant G321V intended to enhance rigidity; catalytically inactive (protein)
chain: SPNYDKWEMERTDITMKHKLGGGQYGEVYEGVWKKYSLTVAVKTLKEDTMEVEEFLKEAAVMKEIKHPNLVQLLGVCTREPPFYIITEFMTYVNLLDYLRECNRQEVNAVVLLYMATQISSAMEYLEKKNFIHRDLAARNCLVGENHLVKVADFGLSRLMTGDTYTAHAGAKFPIKWTAPESLAYNKFSIKSDVWAFGVLLWEIATYGMSPYPGIDLSQVYELLEKDYRMERPEGCPEKVYELMRACWQWNPSDRPSFAEIHQAFETMFQESSISDEVEKELGK
catalytic activity [5]: abrogated the catalytic activity | τS1 ([7]; N4posG321V, 16 pores, single S1 dwell events): 1005.56 ms | τS1 (ms), 16 pores ([7]; N4posG321V, individual S1 dwell times, 16 pores): 214.2 ms
